Data from patent US10369187B2, “Peptide regulators of JNK family kinases” (Vanderbilt University, priority 2017, dated 2019).

Columns and labels:
JNK3 = JNK3 (Homo sapiens, UniProt P53779); test: MBP pull-down of purified JNK3; type: binding; conditions: MBP-fusions, compared with T1A
Procedure: FIG. 5. […] Residues that differ between T1A and B1A are shown in magenta. b, c, d) Pull-down of purified JNK3 (b), MKK4 (c), and MKK7 (d) by MBP (negative control), MBP-arrestin-3 (positive control), MBP-T1A, and MBP-B1A, was performed, as described in Methods. Lower panels, Coomassie gels of loaded MBP-fusions; middle panels, Western blots of retained JNK3 (b), MKK4 (c), and MKK7 (d); upper panels, quantification of Western blots from 3-4 independent experiments. […] T1A sequence shown is SEQ ID NO:1. B1A sequence shown is SEQ ID NO:6.
To test the specificity of T1A action, its ability to bind purified MKK4, MKK7, and JNK3 was compared with that of B1A, a homologous N-terminal peptide from closely related arrestin-2, which differs from T1A only in four positions (FIG. 5). […] To test whether this difference in binding translates into differential activity in cells, the ability of YFP-T1A and YFP-B1A to facilitate JNK3 activation were compared in cells over-expressing ASK1, using YFP-arrestin-3 and YFP as positive and negative controls, respectively.
To make MBP-fusions containing arrestin-2/3 elements, the cDNAs encoding arrestin fragments were subcloned into pMal-p2T (generous gift from Dr. Keiji Tanaka, Tokyo Institute of Medical Science) between Eco RI and Xho I sites in frame with MBP, as described^23. […] Eluates were analyzed by SDS-PAGE and Western blotting.

ASK1 = molecular target: T1, ASK1 (Homo sapiens, UniProt Q99683); test: Co-immunoprecipitation of HA-ASK1 with YFP construct from COS7 cells; type: binding; conditions: HA-ASK1 and YFP-T1A co-expressed in COS7 cells, anti-GFP antibody
T1 construct: expressed in transfected cells; host or cells: COS7
T1 sequence (Q99683 1-1374): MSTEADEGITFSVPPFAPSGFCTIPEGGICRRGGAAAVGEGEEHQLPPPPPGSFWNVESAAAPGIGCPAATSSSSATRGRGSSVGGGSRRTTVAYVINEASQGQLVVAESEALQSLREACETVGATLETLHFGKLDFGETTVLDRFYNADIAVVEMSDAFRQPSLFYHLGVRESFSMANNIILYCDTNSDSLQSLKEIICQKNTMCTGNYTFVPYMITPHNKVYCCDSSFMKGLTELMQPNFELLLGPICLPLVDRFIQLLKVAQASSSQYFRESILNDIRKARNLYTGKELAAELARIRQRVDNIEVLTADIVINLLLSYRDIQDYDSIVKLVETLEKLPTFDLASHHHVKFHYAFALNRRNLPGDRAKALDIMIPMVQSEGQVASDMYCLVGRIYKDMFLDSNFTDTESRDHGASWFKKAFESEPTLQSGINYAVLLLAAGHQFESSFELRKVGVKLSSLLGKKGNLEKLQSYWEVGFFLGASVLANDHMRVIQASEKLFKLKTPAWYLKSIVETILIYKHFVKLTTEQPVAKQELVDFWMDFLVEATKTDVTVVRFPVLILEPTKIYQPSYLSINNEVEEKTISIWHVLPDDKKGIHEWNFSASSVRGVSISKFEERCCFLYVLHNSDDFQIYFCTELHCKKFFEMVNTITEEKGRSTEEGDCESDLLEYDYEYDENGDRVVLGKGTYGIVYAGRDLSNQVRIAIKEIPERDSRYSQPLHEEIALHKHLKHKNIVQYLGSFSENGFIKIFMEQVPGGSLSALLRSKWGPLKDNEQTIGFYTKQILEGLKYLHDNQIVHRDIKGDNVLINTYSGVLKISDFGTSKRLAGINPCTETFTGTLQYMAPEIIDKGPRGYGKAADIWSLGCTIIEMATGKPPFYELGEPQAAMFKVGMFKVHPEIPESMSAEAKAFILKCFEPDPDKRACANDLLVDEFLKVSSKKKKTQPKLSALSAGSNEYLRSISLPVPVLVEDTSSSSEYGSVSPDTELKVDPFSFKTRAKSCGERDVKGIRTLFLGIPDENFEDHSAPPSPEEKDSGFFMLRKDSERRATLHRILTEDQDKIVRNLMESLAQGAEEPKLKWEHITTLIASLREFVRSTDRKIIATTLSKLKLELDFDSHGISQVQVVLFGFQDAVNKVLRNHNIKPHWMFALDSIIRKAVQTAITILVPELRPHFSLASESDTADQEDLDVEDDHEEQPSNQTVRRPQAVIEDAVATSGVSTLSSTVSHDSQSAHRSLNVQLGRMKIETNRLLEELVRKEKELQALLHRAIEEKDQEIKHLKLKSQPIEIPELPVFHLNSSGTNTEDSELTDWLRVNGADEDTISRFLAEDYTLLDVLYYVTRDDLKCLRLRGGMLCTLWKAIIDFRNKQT
Procedure: T1A was expressed in E. coli as an MBP-fusion and purified it on an amylose column^23. The ability of purified GST-MKK4 or GST-MKK7 (FIG. 1A) to bind MBP-T1A immobilized on an amylose column was tested in an in vitro pull-down assay, where MBP and MBP-arrestin-3 served as negative and positive controls, respectively (FIG. 1B). MBP-T1A, but not control MBP, effectively retained both kinases (FIG. 1B). […] Next, it was tested whether T1A binds the uppermost kinase in the cascade, ASK1. Because ASK1 is not available in purified form, HA-tagged ASK1 and YFP-tagged T1A (using YFP as a control) were co-expressed in COS7 cells, lysed the cells, and immunoprecipitated YFP constructs with anti-GFP antibody (FIG. 1C).

JNK3, sequence (P53779 whole entry, species assumed, the tested form may be a part): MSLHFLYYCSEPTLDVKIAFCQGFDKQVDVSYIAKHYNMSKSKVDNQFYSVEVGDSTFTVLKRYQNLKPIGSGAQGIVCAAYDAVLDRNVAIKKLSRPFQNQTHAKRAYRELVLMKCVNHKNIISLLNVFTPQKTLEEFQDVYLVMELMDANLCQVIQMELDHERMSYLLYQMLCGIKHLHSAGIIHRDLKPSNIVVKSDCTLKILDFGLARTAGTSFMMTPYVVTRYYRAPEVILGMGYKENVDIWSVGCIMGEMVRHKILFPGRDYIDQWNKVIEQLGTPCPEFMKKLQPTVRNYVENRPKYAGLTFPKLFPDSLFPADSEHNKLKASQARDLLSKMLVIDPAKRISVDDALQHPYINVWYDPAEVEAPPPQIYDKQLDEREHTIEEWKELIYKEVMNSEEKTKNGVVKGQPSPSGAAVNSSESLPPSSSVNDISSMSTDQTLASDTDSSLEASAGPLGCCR

binding of JNK3 in MBP pull-down (JNK3)	Substance	binding of ASK1 (co-immunoprecipitation) (ASK1)
less robust interaction	MGDK-GTRVFKKASPNGKLTVYLGK (MGDKGTRVFKKASPNGKLTVYLGK; N-terminal MGDK; bovine) [B1A, homologous N-terminal peptide from arrestin-2, negative control]	–
–	MGEKPGTRVFKKSSPNCKLTVYLGK (bovine) [T1A, first 25 residues of arrestin-3]	binds all upstream kinases of its activation cascade
